Measured values: FireProtDB (doi:10.1093/protein/14.11.891)

Conditions: Salmonella typhimurium (strain LT2 / SGSC1412 / ATCC 700720), pH 7, CD, Potassium phosphate 10 mM, reversible: yes, whole UniProt chain shown

B1: Sialidase wild type, P29768 (protein)
chain: MTVEKSVVFKAEGEHFTDQKGNTIVGSGSGGTTKYFRIPAMCTTSKGTIVVFADARHNTASDQSFIDTAAARSTDGGKTWNKKIAIYNDRVNSKLSRVMDPTCIVANIQGRETILVMVGKWNNNDKTWGAYRDKAPDTDWDLVLYKSTDDGVTFSKVETNIHDIVTKNGTISAMLGGVGSGLQLNDGKLVFPVQMVRTKNITTVLNTSFIYSTDGITWSLPSGYCEGFGSENNIIEFNASLVNNIRNSGLRRSFETKDFGKTWTEFPPMDKKVDNRNHGVQGSTITIPSGNKLVAAHSSAQNKNNDYTRSDISLYAHNLYSGEVKLIDDFYPKVGNASGAGYSCLSYRKNVDKETLYVVYEANGSIEFQDLSRHLPVIKSYN
25 °C, GdnHCl
  denaturant midpoint (higher = more stable): 1.33 M
  unfolding free energy: 4.24 kcal/mol
Thermal
  Tm: 57 °C
